# Source: patent US20250019450A1 (DIAGONAL THERAPEUTICS, published 2025)
# Where a chain is given by its changes, count along the chain named.
# B1: DGL397 (bispecific antibody, human IgG1, kappa)
# heavy 1: not shown
# heavy 2: QVQLVESGGGLVQAGGSLRLSCAASGRIFSAYRMGWFRQAPGKEREFVAGITWRGQTTYYAASVKGRFTISKDNAKKTVYLQMNSLKPEETAVYYCAVETNGLGRWDRPSEYDYWGQGTQVTVEPKSSDKTHTCPPCPAPEAAGAPSVFLFPPKPKDTLMISRTPEVTCVVVDVSHEDPEVKFNWYVDGVEVHNAKTKPREEQYNSTYRVVSVLTVLHQDWLNGKEYKCKVSNKALPAPIEKTISKAKGQPREPQVCTLPPSRDELTKNQVSLSCAVKGFYPSDIAVEWESNGQPENNYKTTPPVLDSDGSFFLVSKLTVDKSRWQQGNVFSCSVMHEALHNRFTQKSLSLSPG
# light: DIQLTQSPSFLSASVGDRVTITCRASQGISSYLAWYQQQPGKPPKLLIYAASTLHSGVPSRFSGSGSGTEFTLTISSLQPEDFATYYCQQLNRYPYTCGQGTKLEIKRTVAAPSVFIFPPSDEQLKSGTASVVCLLNNFYPREAKVQWKVDNALQSGNSQESVTEQDSKDSTYSLSSTLTLSKADYEKHKVYACEVTHQGLSSPVTKSFNRGEC
# B2: DGL395 (bispecific antibody, human IgG1, kappa)
# heavy 1: not shown
# heavy 2: QVQLVESGGGLVQAGGSLRLSCAASGRTFSSYAMGWFRQAPGKEREFVSAISWSGLSTYYVESVQGRFTISRDNAKNTVYLQMNSLKPEDTAVYYCAASRIYTNYVARSYEYDDWGQGTQVTVEPKSSDKTHTCPPCPAPEAAGAPSVFLFPPKPKDTLMISRTPEVTCVVVDVSHEDPEVKFNWYVDGVEVHNAKTKPREEQYNSTYRVVSVLTVLHQDWLNGKEYKCKVSNKALPAPIEKTISKAKGQPREPQVCTLPPSRDELTKNQVSLSCAVKGFYPSDIAVEWESNGQPENNYKTTPPVLDSDGSFFLVSKLTVDKSRWQQGNVFSCSVMHEALHNRFTQKSLSLSPG
# light: B1 light with Y32F, Q39K, P43A, H55Q, R93G, Y96F, C98F, Q100P, L104V, E105D
# B3: DGL405 (bispecific antibody, human IgG1, kappa)
# heavy 1: not shown
# heavy 2: B1 heavy 2
# light: DIQLTQSPSFLSASVGYRVTITCRASQGISSYLAWYQQKPGKAPQLLIYAASTLQSGVPSRFSGRGSGTEFTLTISSLQPEDFATYYCQQLNGYPFTFGPGTKVNIKRTVAAPSVFIFPPSDEQLKSGTASVVCLLNNFYPREAKVQWKVDNALQSGNSQESVTEQDSKDSTYSLSSTLTLSKADYEKHKVYACEVTHQGLSSPVTKSFNRGEC
# B4: DGL518 (bispecific antibody, V domains shown)
# V domain 1: EVQLVESGGGLVQPGGSLRLFCAASRSIFNINIMGWYRQAPGKQREWLASITSGGSTFYADSVKDRFTISRDSVKNTVYLQMNSLKPEDTAAYYCNRYRSVPLNTVYPWGQGTLVTVEP
# V domain 2: QVQLVESGGGLVRPGGSLRLSCAASGFTFSSNGMHWFRQAPGKGLEWVSSIGSGGTSIYYADSVKGRFTISRDNAKNTLYLQMNSLKSDDTAVYYCSKEVTGATRGQGTQVTVEP
# B5: DGL479 (bispecific antibody, V domains shown)
# V domain 1: QVQLVESGGGLVQAGGSLRLSCAAPGRYAVGWFRQAPGKEYEFVAAITVSGGSKYYEDSVKGRFAISRDNAKNTVYLQMNSLKAEDTAVYYCAARTPKFGSGWYNRRGEYDYWGQGTQVTVEP
# V domain 2: QVQLVESGGGLVQAGGSLRLSCAASGRTFSSYAMGWFRQAPGKEREFVSAISWSGLSTYYVESVQGRFTISRDNAKNTVYLQMNSLKPEDTAVYYCAASRIYTNYVARSYEYDDWGQGTQVTVEP
# B6: DGL490 (bispecific antibody, V domains shown)
# V domain 1: QVQLVESGGGLVQAGGSLRLSCAASARIFNSYAVAWFRQTPGKEREFVASISWSGGSTNYADSVKGRFTISRDNAKNTVFLQMNSLKPADTAVYYCAADRNYYPSVLGKYTYWGQGTQVTVEP
# V domain 2: B5 V domain 2
# B7: DGL594 (bispecific antibody, V domains shown)
# V domain 1: EVQLVESGGGLVQAGGSLRLSCAASGSKFSFNAMGWYRQTPGKQRELVAIIINGDMINYADSVKGRFTISRDNAKNTMYLQMNSLKPEDTAVYYCKMTRYVYDYWGQGTQVTVEP
# V domain 2: QVQLVESGGGLVQPGGSLRLSCAASGFTFSSKAMHWFRQAPGKGLEWVSSINSGGAITYYKDSVKGRFTVSRDNAKNILYLEMNSLKPEDTALYYCATDTDGRTRGQGTQVTVEP
# B8: DGL496 (bispecific antibody, V domains shown)
# V domain 1: EVQLVESGGGLVQAGGSLRLSCAASGLTFRNYAMAWFRQAPGKEREFVAGITWGGGLTHYVDSVKGRFTISRDNGKNTVYLQMNSLKSEDTAVYYCAGKTQGSTWYHLTPDGYDYWGQGTQVTVEP
# V domain 2: B7 V domain 2
# B9: DGL587 (bispecific antibody, V domains shown)
# V domain 1: QVQLVESGGGLVQAGGSLRLSCAASGRTFSSYVMGWFRQAPGQEREFVAAIMRNGIMTYYADSVKGRFTISRDNAKNTVYLQMNTLKPDDTAVYYCAAASRVGVSISQSSSYTSWGQGTQVTVEP
# V domain 2: B7 V domain 2
# B10: DGL413 (bispecific antibody, human IgG1, kappa)
# heavy 1: not shown
# heavy 2: QVQLVESGGGLVQAGGSLRLSCAASGRTFSRYRMGWFRQAPGKEREFVAAITKSGATTYDADSVKGRFTISRDNAKNTLYLQMNSLKPEDTAVYYCAASYHSNWWPKNADEYAYWGQGTQVTVEPKSSDKTHTCPPCPAPEAAGAPSVFLFPPKPKDTLMISRTPEVTCVVVDVSHEDPEVKFNWYVDGVEVHNAKTKPREEQYNSTYRVVSVLTVLHQDWLNGKEYKCKVSNKALPAPIEKTISKAKGQPREPQVCTLPPSRDELTKNQVSLSCAVKGFYPSDIAVEWESNGQPENNYKTTPPVLDSDGSFFLVSKLTVDKSRWQQGNVFSCSVMHEALHNRFTQKSLSLSPG
# light: DIQMTQSPSSLSASVGDRVTITCRASQGIGNYLAWFQQRPGKAPKSLIYAASSLQSGVPSKFSGSGSGTDFTLTISSLQPADFAIYYCQQYNIYPYTFGPGTRLEIKRTVAAPSVFIFPPSDEQLKSGTASVVCLLNNFYPREAKVQWKVDNALQSGNSQESVTEQDSKDSTYSLSSTLTLSKADYEKHKVYACEVTHQGLSSPVTKSFNRGEC
# B11: DGL497 (bispecific antibody, V domains shown)
# V domain 1: B8 V domain 1
# V domain 2: QVQLVESGGGLVQPGGSLRLSCAASGFTFSNYAMSWIRQGPERGFEWVSRINSGGGTTSYADSVKGRFTISRDNAKNTLYLQMNSLKPEDTAVYYCAKHSHPDYSSNYYRPGQGTQVTVEP
# B12: DGL505 (bispecific antibody, V domains shown)
# V domain 1: B8 V domain 1
# V domain 2: QVQLVESGGGLVQLGDSLRLSCAASGRGFSSWTMAWFRQALGKRREFVAAITATGARTSSAESEGRFTISRDNAKNMVFLQMNSLKAEDTAVYYCAATGIASWDPGMADKYTYWGQGTQVTVEP
# B13: DGL506 (bispecific antibody, V domains shown)
# V domain 1: B8 V domain 1
# V domain 2: QVQLVESGGGLVQAGGSLKLSCAASGGTFSSYAMGWFRQAPGKEREFVAAIMRSGGTTVYVNSVKGRFTVSRDNAKNTVYLQMNSLKPEDAAVYYCAAGRPVSRTSYYTYTYPHDYDYWGQGTQVSVEP
# B14: DGL508 (bispecific antibody, V domains shown)
# V domain 1: B8 V domain 1
# V domain 2: QVQLVESGGGLVQAGGSLRLSCAASGRTFSRYIMGWFRQATGKEREFVAAISWSGLSTHYADSVQGRFTISRDNAENTVYLQMNSLKPEDTAVYYCAADRHWETRLLPREYDYWGQGTQVTVEP
# B15: DGL603 (bispecific antibody, V domains shown)
# V domain 1: EVQLVESGGGLVQPGGSLRLSCAASGFTFQNYAMSWLRKAPGEGLEWVSVINSGGGSTLYADSVKGRFTISRDNAKNTLYLQMHSLKSEDTAVYFCAKRRDDSTFGSLLYTHRGQGTQVTVEP
# V domain 2: QVQLVESGGGLVQPGGSLRLSCAASGFTFSNYAMSWVRQAPGKGLEWVSAINSDGTSTSYADSVKGQFTISRDNAKNTLYLQMNSLKPEDTAVYYCTKWEGDTDSDYKFKDYWGQGTQVTVEP
# B16: DGL461 (bispecific antibody, V domains shown)
# V domain 1: B15 V domain 1
# V domain 2: QVQLVESGGGLVQPGGSLRLSCAASGFTFEPYDMSWFRQAPGKGPEWVSAIDKGGGAGATYYADSVKGRFTISRDNAKKTLYLQMKSLKPEDTAVYYCAITAGPYSDSTPRVAYRGEGTQVTVEP
# Target: human IL-12 receptor (IL-12Rβ1 and IL-12Rβ2) on HEK-Blue IL-12 cells (human, UniProt P42701 24-662; Q99665 24-862)
# Sequence (Q99665 24-862, chain 2 of 2, other chains not shown): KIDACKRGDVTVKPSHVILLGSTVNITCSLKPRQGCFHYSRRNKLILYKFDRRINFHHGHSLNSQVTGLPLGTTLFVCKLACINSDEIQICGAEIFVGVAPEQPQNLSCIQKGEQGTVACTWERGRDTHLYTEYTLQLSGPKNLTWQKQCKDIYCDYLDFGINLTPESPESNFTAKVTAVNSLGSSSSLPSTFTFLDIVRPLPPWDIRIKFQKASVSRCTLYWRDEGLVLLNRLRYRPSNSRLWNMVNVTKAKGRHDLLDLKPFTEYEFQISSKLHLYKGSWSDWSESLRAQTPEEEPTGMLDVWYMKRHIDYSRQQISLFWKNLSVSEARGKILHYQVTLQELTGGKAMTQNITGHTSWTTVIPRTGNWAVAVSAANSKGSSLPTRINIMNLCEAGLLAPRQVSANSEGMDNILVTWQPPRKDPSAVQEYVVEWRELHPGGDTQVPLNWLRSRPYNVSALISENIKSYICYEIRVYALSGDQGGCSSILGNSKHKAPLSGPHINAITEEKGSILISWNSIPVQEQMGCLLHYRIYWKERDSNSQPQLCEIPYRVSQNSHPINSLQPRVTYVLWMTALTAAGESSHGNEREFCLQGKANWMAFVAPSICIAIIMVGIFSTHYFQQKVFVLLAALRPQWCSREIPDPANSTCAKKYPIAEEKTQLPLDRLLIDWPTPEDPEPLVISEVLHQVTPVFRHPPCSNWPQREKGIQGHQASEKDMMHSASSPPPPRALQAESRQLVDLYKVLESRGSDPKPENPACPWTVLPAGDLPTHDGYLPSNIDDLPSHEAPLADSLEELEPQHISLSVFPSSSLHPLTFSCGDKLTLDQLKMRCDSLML
# Assay: cell-based or functional assay
Binder,EC50,Max Absorbance
B1,1.6e-11 M (implied),0.28
B2,2.3e-10 M (implied),0.26
B3,,0.26
B4,,0.27
B5,,0.29
B6,,0.25
B7,,0.33
B8,,0.27
B9,,0.32
B10,,0.29
B11,,0.32
B12,,0.26
B13,,0.31
B14,,0.28
B15,,0.31
B16,,0.31
